Values belong to the molecule of their own block, whether it stands above or below them.
Assays:
[1] = system: O=C(O)CCC(=O)C1=CC=C[C@@H](O)[C@@H]1C(=O)O; assay: purified protein; assay type: biochemical, Alicyclobacillus acidocaldarius; details: 50 mM Tris pH 8.0, 0.1 mM MnCl2, 25 °C
[2] = biological target: T1, AaOSBS (Alicyclobacillus acidocaldarius, UniProt Z9M799VK71); assay: inhibition of OSBS activity, SHCHC loss at […] nm; assay type: biochemical
T1 sequence (Z9M799VK71 4-380): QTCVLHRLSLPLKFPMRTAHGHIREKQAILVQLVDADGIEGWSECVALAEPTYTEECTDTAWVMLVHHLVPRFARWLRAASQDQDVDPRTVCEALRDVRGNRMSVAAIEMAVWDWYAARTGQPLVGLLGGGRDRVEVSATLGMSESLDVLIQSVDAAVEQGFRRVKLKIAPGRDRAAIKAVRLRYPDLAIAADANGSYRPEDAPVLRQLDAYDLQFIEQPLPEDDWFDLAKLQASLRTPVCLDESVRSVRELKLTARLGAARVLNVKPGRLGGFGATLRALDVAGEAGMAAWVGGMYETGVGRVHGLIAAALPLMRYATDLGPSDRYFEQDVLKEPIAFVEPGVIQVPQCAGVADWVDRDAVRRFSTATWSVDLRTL

[3] = substrate: O=C(O)CCC(=O)C1=CC=C[C@@H](O)[C@@H]1C(=O)O; assay: purified protein; assay type: biochemical, Amycolatopsis mediterranei; details: 50 mM Tris pH 8.0, 0.1 mM MnCl2, 25 °C
[4] = substrate: O=C(O)CCC(=O)N[C@@H](C(=O)O)c1ccccc1; assay: purified protein; assay type: biochemical, Amycolatopsis mediterranei; details: 200 mM Tris pH 8.0, 0.1 mM MnCl2
[5] = substrate: O=C(O)CCC(=O)C1=CC=C[C@@H](O)[C@@H]1C(=O)O; assay: purified protein; assay type: biochemical, Roseiflexus castenholzii; details: 50 mM Tris pH 8.0, 0.1 mM MnCl2, 25 °C
[6] = substrate: O=C(O)CCC(=O)N[C@@H](C(=O)O)c1ccccc1; assay: purified protein; assay type: biochemical, Roseiflexus castenholzii; details: 200 mM Tris pH 8.0, 0.1 mM MnCl2

Molecule: AaOSBS (Alicyclobacillus acidocaldarius)
Km [1]: 118 ± 18 µM
kcat [1]: 64 ± 3 s⁻¹
kcat/Km [1]: 540000 M⁻¹ s⁻¹

Ki [2]: 3.6 ± 0.4 mM
Molecule: O=C(O)CCC(=O)N[C@@H](C(=O)O)c1ccccc1 [D-NSPG, N-succinyl-D-phenylglycine]

Ki [2]: 2.6 ± 0.4 mM
Molecule: O=C(O)CCC(=O)N[C@H](C(=O)O)c1ccccc1 [L-NSPG, N-succinyl-L-phenylglycine]

B1: AmedNSAR (Amycolatopsis mediterranei S699) (protein)
chain: MKLTGVELLRVRMPLVAPFRTSFGTQAERELLLLRAVTSEGEGWGECGAMAGPLYSAEYIDGVEHVLQAFLVPALLAAGDLTAHKVAPLLAKFKGHRMAKAALEMAVLDAELRAHGLSFGTALGSTSDSVPCGVSVGIMDSIPQLVDVVGGYLDAGYLRIKLKIEPGWDVEPVRAVRERFGDDILLQVDANTAYTLSDVPQLQRLDPFGLLLIEQPLEEEDVLGHAELARHLRTPICLDETVVSAASAAAAIRLGACRIVNIKPSRVGGYLEARRVHDVCAAHGIPVWCGGMLETGLGRAANVALASLPGFTLPGDTSASDRFYRTDITEPFVLEAGRLPVPSGPGLGVTPIPERLAEVTTAKSWLA
Km [3]: 415 ± 39 µM
kcat [3]: 242 ± 11 s⁻¹
kcat/Km [3]: 580000 M⁻¹ s⁻¹
Km [4]: 2800 ± 550 µM
kcat [4]: 74 ± 7 s⁻¹
kcat/Km [4]: 26000 M⁻¹ s⁻¹

B2: RcNSAR/OSBS (Roseiflexus castenholzii DSM 13941) (protein)
chain: MKIESITLHHIDMPLVAPFETSFGRETHRPCILIEMRADGLTGWGECVAGAGPWYAYETIGTAWHIISDFLAPMIVGQEITEPIGIVERFASVRGHPMARAAVEAAFWDLYAQARGVSLARLIGATRDRVTVGVSVGIELTLEAQLASIERFVAAGYARIKLKIKPGWDVAVVRAVRERWPDIALQVDANSAYTPDDAPIFRELDEMNLLLIEQPLHHDDIVDHARLQAQISTPICLDESIHSPEHARWALDIDACRVINIKIGRVGGLTAARQIHDLCAERGVPVWCGGMLETNVGRAVNLALAALPNFALPGDISASARYYHRDIAAPDFVLNDDSTITVPDTPGTGVAVLPERLRDVQVREVIIGKG
Km [5]: 155 ± 22 µM
kcat [5]: 38 ± 3 s⁻¹
kcat/Km [5]: 250000 M⁻¹ s⁻¹
Km [6]: 1800 ± 230 µM
kcat [6]: 15 ± 4 s⁻¹
kcat/Km [6]: 8300 M⁻¹ s⁻¹
